Among the data in patent publication EP1012307B1, “ZYMOGENIC PROTEASE PRECURSORS THAT CAN BE AUTOCATALYTICALLY ACTIVATED AND THEIR USE” (Roche Diagnostics GmbH, priority 1997, dated 1999) are kcat, Km and kcat/Km values, retold here.

Peptide text beside a SMILES is read from it. * marks the point of attachment. pNA = O=[N+]([O-])c1ccc(N*)cc1; Tos = Cc1ccc(S(=O)(=O)*)cc1

Common to all, as to experiment: Trypsin activity with Chromozym TH as substrate, kinetic constants kcat and Km
In data set [1] the target is T1, humanes Trypsin I, Trypsinvariante rTRYI-VGR (Aktivierungspeptid ValGlyArg, autokatalytisch aktiviert) (Homo sapiens, UniProt P07477).
T1 construct: kodierend für Trypsin I von Aminosäureposition 24-247; made in house
In kind it is biochemical. As to conditions: Substrat: Chromozym®TH; 25°C, 50 mmol/l Tris-HCl, 150 mmol/l NaCl, 5 mmol/l CaCl2, 0,1% PEG 8000, pH 8,0. As to the method: Das N-terminale native Trypsinogen I Prosegment AlaProPheAspAspAspAspLys wurde durch das Aktivierungspeptid ValGlyArg ersetzt. Das TRYI-VGR Trypsinvariantengen wurde analog wie das TRYI-GPK Trypsinvariantengen mittels PCR-Technik hergestellt.
(§1) Die Aktivitätsbestimmung von Trypsin wurde in einem Volumen von 1 ml in 50 mmol/l Tris-HCl, 150 mmol/l NaCl, 5 mmol/l CaCl2, 0,1% PEG 8000, pH 8,0 und 0,1 mmol/l des chromogenen Substrats Chromozym®TH (Tosyl-Gly-Pro-Arg-4-pNA, Kat.-Nr. 838268, Boehringer Mannheim GmbH, Mannheim, Deutschland) bei 25°C durchgeführt. Die Reaktion wurde durch Zugabe von 1-10 µl Trypsin-haltiger Probe (0,4-4 U/ml, gelöst in 1 mmol/l HCl) gestartet und die Absorptionsänderung/min (ΔA/min) bei 405 nm (ε405 = 9,75 [mmol^-1 x 1 x cm^-1]) bestimmt. 1 Chromozym®TH Unit Trypsin ist definiert als die Menge Enzym, die 1 µmol pNitroanilin (pNA) pro min bei 25°C aus dem chromozymen Substrat freisetzt.
Die FXa Aktivitätsbestimmung wurde mit dem chromogenen Substrat Chromozym® X (0,1 mmol/l, N-Methoxycarbonyl-D-Nle-Gly-Arg-pNA, Boehringer Mannheim GmbH, Mannheim, Kat.-Nr. 789763) in einem Volumen von 1 ml bei 25°C in 50 mmol/l Tris-HCl, 150 mmol/l NaCl, 5 mmol/l CaCl2, 0,1% PEG 8000, pH 8,0, durchgeführt. […]

Substrate in data set [2]: Cc1ccc(S(=O)(=O)NCC(=O)N2CCC[C@H]2C(=O)N[C@@H](CCCNC(=N)N)C(=O)Nc2ccc([N+](=O)[O-])cc2)cc1
In kind it is biochemical, Schweine. To be noted: other: Substrat: Chromozym®TH, 25°C, 50 mmol/l Tris-HCl, 150 mmol/l NaCl, 5 mmol/l CaCl2, 0,1% PEG 8000, pH 8,0. How it is done:
as §1
(§2) Die FXa Aktivitätsbestimmung wurde mit dem chromogenen Substrat Chromozym® X (0,1 mmol/l, N-Methoxycarbonyl-D-Nle-Gly-Arg-pNA, Boehringer Mannheim GmbH, Mannheim, Kat.-Nr. 789763) in einem Volumen von 1 ml bei 25°C in 50 mmol/l Tris-HCl, 150 mmol/l NaCl, 5 mmol/l CaCl2, 0,1% PEG 8000, pH 8,0, durchgeführt. Die Reaktion wurde durch Zugabe von 1-10 µl rFXa-haltiger Probe (0,4-4 U/ml) gestartet und die Absorptionsänderung/min (ΔA/min) bei 405 nm (ε405 = 9,75 [mmol^-1 x 1 x cm^-1]) gemessen. 1 Unit (U) FXa Aktivität ist definiert als die Menge Enzym, die 1 µmol pNA pro min bei 25°C aus dem chromozymen Substrat freisetzt. Die Aktivität und die kinetischen Konstanten wurden aus der linearen Anfangssteigung gemäß der Michaelis-Menten-Gleichung bestimmt. Die Ergebnisse zeigt Tabelle 1. Tabelle 1

Substrate in data set [3]: Cc1ccc(S(=O)(=O)NCC(=O)N2CCC[C@H]2C(=O)N[C@@H](CCCNC(=N)N)C(=O)Nc2ccc([N+](=O)[O-])cc2)cc1
In kind it is biochemical, human. As to conditions: other: Substrat: Chromozym®TH, 25°C, 50 mmol/l Tris-HCl, 150 mmol/l NaCl, 5 mmol/l CaCl2, 0,1% PEG 8000, pH 8,0.
Description: Durch Einführung einer zusätzlichen Disulfidbrücke wurde das humane Trypsin I Isoenzym verändert. Dazu wurde die Aminosäure Pro an Position 132 und die Aminosäure Tyr an Position 233 zu Cys mutiert (Aminosäuresequenz-Nummerierung entsprechend der Publikation von Emi, M. et al. (Gene 41 (1986) 305-310)). Durch diese 2 Punktmutationen (P132C und Y233C) kann sich eine zusätzliche 6-te Disulfidbrücke zwischen den erfindungsgemäß eingeführten Cysteinresten an Position 132 und 233 ausbilden. Zudem wurde die Aminosäure Pro an der Position 133 zu Ala mutiert (P133A).
as §1, §2

Broadly, the kcat is the maximal rate divided by the concentration of active sites. Consider `Cc1ccc(S(=O)(=O)NCC(=O)N2CCC[C@H]2C(=O)N[C@@H](CCCNC(=N)N)C(=O)Nc2ccc([N+](=O)[O-])cc2)cc1` [Chromozym®TH, Tosyl-Gly-Pro-Arg-4-pNA] (Tos-Gly-Pro-Arg-pNA), for which the kcat in data set [1] stood at 95 ± 1 s⁻¹.

B1: Schweine Trypsin (Sigma-Aldrich Chemie GmbH, Kat.-Nr. T-7418) (Sus scrofa) (protein)
chain: IVGGYTCAANSIPYQVSLNSGSHFCGGSLINSQWVVSAAHCYKSRIQVRLGEHNIDVLEGNEQFINAAKIITHPNFNGNTLDNDIMLIKLSSPATLNSRVATVSLPRSCAAAGTECLISGWGNTKSSGSSYPSLLQCLKAPVLSDSSCKSSYPGQITGNMICVGFLEGGKDSCQGDSGGPVVCNGQLQGIVSWGYGCAQKNKPGVYTKVCNYVNWIQQTIAAN
notes: purchased Sigma-Aldrich Chemie GmbH T-7418
Usually Km stands for the concentration of substrate that gives half-maximal velocity. Turning to B1, in data set [2], the Km is 8.5 µM, the kcat worked out at 97 ± 3 s⁻¹ and the kcat/Km is reported as 11,4 1/µM/s.

B2: humanes Trypsin I, Trypsinvariante rTRYI-GPK-SS (P132C, P133A, Y233C; zusätzliche Disulfidbrücke) (Homo sapiens; P132C/P133A/Y233C) (protein)
chain: IVGGYNCEENSVPYQVSLNSGYHFCGGSLINEQWVVSAGHCYKSRIQVRLGEHNIEVLEGNEQFINAAKIIRHPQYDRKTLNNDIMLIKLSSRAVINARVSTISLPTACAATGTKCLISGWGNTASSGADYPDELQCLDAPVLSQAKCEASYPGKITSNMFCVGFLEGGKDSCQGDSGGPVVCNGQLQGVVSWGDGCAQKNKPGVYTKVCNYVKWIKNTIAANS
notes: kodierend für Trypsin I von Aminosäureposition 24-247; the Lys is residue 23) (N, cleaved yes); made in house
For B2, in data set [3], the Km was 19 ± 1 µM, the kcat worked out at 99 ± 2 s⁻¹ and the kcat/Km is on record as 5,2 1/µM/s.
